Experimental findings from the Immune Epitope Database (IEDB) are described below.

In one experiment the target is HLA-B*54:01. Briefly: IEDB peptide-MHC binding, purified MHC/competitive/radioactivity; filed as Kd, often an IC50 or EC50 that approximates it; ≥ and ≤ were set here for values at or beyond the usual limits of such assays.
A further experiment has as its target HLA-B*51:01. Described as above.
For another experiment, the target named is HLA-B*53:01. The experiment is described as above.
The target in experiment [1] is HLA-B*07:02. The description is as above.
The next experiment addresses HLA-B*35:01. The experiment is described as above.
For another experiment, the target named is HLA-A*11:01. Briefly: IEDB peptide-MHC binding, purified MHC/competitive/fluorescence; ≥ and ≤ were set here for values at or beyond the usual limits of such assays.
Another experiment addresses HLA-B*57:01. Kind of experiment: IEDB peptide-MHC binding, purified MHC/direct/fluorescence; filed as Kd, often an IC50 or EC50 that approximates it; ≥ and ≤ were set here for values at or beyond the usual limits of such assays.
Another experiment has as its target HLA-B*15:17. Described as above.
In another experiment the target is HLA-B*58:01. Described as above.
The target in the next experiment is HLA-B*48:01. The description is as above.
For a further experiment, the target named is HLA-A*03:01. The experiment is described as above. Conditions: source organism: Mammarenavirus juninense.
The next experiment addresses HLA-A*01:01. The experiment is described as above. Conditions: source organism: Mammarenavirus juninense.
The next experiment concerns the target HLA-B*08:01. The experiment is described as above. Conditions: source organism: Mammarenavirus juninense.
In another experiment the target is HLA-B*15:01. The description is as above. The following applies: source organism: Mammarenavirus juninense.
For experiment [2], the target named is HLA-B*07:02. Described as above. Conditions: source organism: Mammarenavirus juninense.
A further experiment deals with HLA-B*40:01. The experiment is described as above. Conditions: source organism: Mammarenavirus juninense.
The target in the next experiment is HLA-B*46:01. The description is as above. The following applies: source organism: Mammarenavirus juninense.
For another experiment, the target named is HLA-B*18:01. Described as above. The following applies: source organism: Mammarenavirus juninense.
In another experiment the target is HLA-B*27:05. The experiment is described as above. Conditions: source organism: Mammarenavirus juninense.
Another experiment has as its target HLA-B*44:02. Described as above. Conditions: source organism: Mammarenavirus juninense.
The target in the next experiment is HLA-A*02:01. The experiment is described as above. Conditions: source organism: Mammarenavirus juninense.
The next experiment concerns the target HLA-A*31:01. Described as above. Conditions: source organism: Mammarenavirus juninense.
The mark [3] stands for this setting: source organism: Vaccinia virus WR.
The mark [4] stands for this setting: source organism: Cryptosporidium parvum.
Setting [5] is: source organism: Camelpox virus M-96.
The mark [6] stands for this setting: source organism: Mammarenavirus whitewaterense.
Where [7] appears, read: source organism: Mammarenavirus lassaense.
Where [8] appears, read: source organism: Mammarenavirus juninense.

Broadly, the Kd is the equilibrium constant for the complex coming apart. Broadly, the IC50 is the point on the concentration scale where inhibition reaches its midpoint. Low values mean greater potency in that assay, high ones weaker potency in that assay.

Turning to SPTEMVDVSM, the Kd with HLA-B*54:01 (setting [3]) is ≥ 42700 nM; with HLA-B*51:01 (setting [3]), ≥ 69600 nM; with HLA-B*53:01 (setting [3]) it was 1940 nM; in the experiment with HLA-B*07:02 [1] (setting [3]) it was 122 nM; with HLA-B*35:01 (setting [3]), 37.2 nM.

In the experiment with HLA-A*11:01 (source organism: Zaire ebolavirus), GEWAFWETK had an IC50 of 58000 nM.

Regarding KACPPGFVF, the Kd turned out to be 2480 nM with HLA-B*57:01 (setting [4]), 143 nM with HLA-B*15:17 (setting [4]) and 17.7 nM in the experiment with HLA-B*58:01 (setting [4]).

For the sequence KSVTKSSSW, the Kd is 108 nM in the experiment with HLA-B*57:01 (setting [5]), ≤ 1 nM in the experiment with HLA-B*15:17 (setting [5]) and 16.2 nM in the experiment with HLA-B*58:01 (setting [5]).

Take WRTIMAVLF: the Kd with HLA-B*48:01 (source organism: dengue virus type 4) is ≥ 20000 nM.

NPTNISKCF: the Kd with HLA-B*54:01 (setting [6]) was 3470 nM; in the experiment with HLA-B*51:01 (setting [6]), 5740 nM; with HLA-B*53:01 (setting [6]) it was 77.7 nM; with HLA-B*07:02 [1] (setting [6]), 8660 nM; in the experiment with HLA-B*35:01 (setting [6]), 199 nM.

Consider IPYSRVNHA, for which the Kd with HLA-B*54:01 (setting [3]) worked out at 0.133 nM; with HLA-B*51:01 (setting [3]), 23.2 nM; with HLA-B*53:01 (setting [3]), 177 nM; in the experiment with HLA-B*07:02 [1] (setting [3]), 6.63 nM; with HLA-B*35:01 (setting [3]), 57.2 nM.

On to SPLPSLEYGA, for which the Kd in the experiment with HLA-B*54:01 (setting [3]) was 0.204 nM; in the experiment with HLA-B*51:01 (setting [3]), ≥ 69600 nM; with HLA-B*53:01 (setting [3]) it was 12400 nM; with HLA-B*07:02 [1] (setting [3]) it was 1640 nM; in the experiment with HLA-B*35:01 (setting [3]), 6000 nM.

In the case of EPSGNNYHIL, the Kd in the experiment with HLA-B*54:01 (setting [3]) was 15500 nM; with HLA-B*51:01 (setting [3]), ≥ 69600 nM; in the experiment with HLA-B*53:01 (setting [3]) it was 2960 nM; in the experiment with HLA-B*07:02 [1] (setting [3]), 1670 nM; with HLA-B*35:01 (setting [3]) it was 8080 nM.

On to PPLISILMIF, for which the equilibrium dissociation constant (Kd) came out at 3120 nM with HLA-B*54:01 (setting [3]); 2020 nM with HLA-B*51:01 (setting [3]); 497 nM with HLA-B*53:01 (setting [3]); 270 nM with HLA-B*07:02 [1] (setting [3]); 761 nM with HLA-B*35:01 (setting [3]).

Consider KPFNNILNLI, for which the Kd in the experiment with HLA-B*54:01 (setting [3]) was ≥ 69900 nM; with HLA-B*51:01 (setting [3]) it was ≥ 10000 nM; in the experiment with HLA-B*53:01 (setting [3]), ≥ 69900 nM; with HLA-B*07:02 [1] (setting [3]), 1140 nM; with HLA-B*35:01 (setting [3]), ≥ 69900 nM.

With YPNSSDLDM, the Kd is ≥ 53900 nM with HLA-B*54:01 (setting [7]); 780 nM with HLA-B*51:01 (setting [7]); 14.1 nM with HLA-B*53:01 (setting [7]); 233 nM with HLA-B*07:02 [1] (setting [7]); 8.23 nM in the experiment with HLA-B*35:01 (setting [7]).

With VLTGGTGVG, the IC50 with HLA-A*11:01 (source organism: Variola virus) is ≥ 80600 nM.

On to DPGNPNCLEW, for which the Kd with HLA-B*54:01 (setting [3]) is ≥ 69900 nM; with HLA-B*51:01 (setting [3]), ≥ 69600 nM; with HLA-B*53:01 (setting [3]), 6.64 nM; with HLA-B*07:02 [1] (setting [3]), ≥ 69600 nM; with HLA-B*35:01 (setting [3]), ≥ 56500 nM.

Take DLKLVDVKL: the Kd with HLA-A*03:01, in the experiment with HLA-A*01:01, with HLA-B*57:01 (setting [8]), with HLA-B*58:01 (setting [8]), with HLA-B*08:01 and with HLA-B*15:01 was ≥ 20000 nM throughout. The Kd in the experiment with HLA-B*48:01 (setting [8]), with HLA-B*07:02 [2], in the experiment with HLA-B*40:01, with HLA-B*46:01, with HLA-B*18:01 and with HLA-B*27:05 was ≥ 20000 nM throughout. Moreover, the Kd with HLA-B*44:02, in the experiment with HLA-A*02:01 and with HLA-A*31:01 was ≥ 20000 nM in each case.
